According to patent publication US20080181886A1, “Polypeptides That Bind Baff And/Or April” (Genentech, Inc., priority 2004, published 2008):

T1: APRIL (Mus musculus, UniProt Q9D777)
T1 construct: made in house
T1 sequence (Q9D777 105-241): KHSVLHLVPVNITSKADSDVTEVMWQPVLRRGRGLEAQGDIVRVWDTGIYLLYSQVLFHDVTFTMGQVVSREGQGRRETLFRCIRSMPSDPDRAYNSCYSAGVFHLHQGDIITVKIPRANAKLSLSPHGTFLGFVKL

B1: shortTACI: TACI splice variant: first 20 residues, one tryptophan in place of the 47 residues encoding CRD1, then the rest of the protein (protein)
chain: MSGLGRSRRGGRSRVDQEERWSLSCRKEQGKFYDHLLRDCISCASICGQHPKQCAYFCENKLRSPVNLPPELRRQRSGEVENNSDNSGRYQGLEHRGSEASPALPGLKLSADQVALVYSTLGLCLCAVLCCFLVAVACFLKKRGDPCSCQPRSRPRQSPAKSSQDHAMEAGSPVSTSPEPVETCSFCFPECRAPTQESAVTPGTPDPTCAGRWGCHTRTTVLQPCPHIPDSGLGIVCVPAQEGGPGA
B2: TACI_d1d2: residues 21-116 of the TACI extracellular domain (both CRDs) with a C-terminal His-tag (protein, UniProt O14836 21-116, looked up, fragment)
chain: FPQGLWTGVAMRSCPEEQYWDPLLGTCMSCKTICNHQSQRTCAAFCRSLSCRKEQGKFYDHLLRDCISCASICGQHPKQCAYFCENKLRSPVNLPP
modifications: extracellular domain C-terminal His-tag
notes: residues 21-116 of the TACI extracellular domain (both CRDs) with a C-terminal His-tag

Key:
NF-κB = NF-κB ELAM-luciferase reporter assay in co-transfected 293T cells; format: cell-based, Human; details: 293T cells co-transfected with ligand and receptor; 20 hr after transfection
Method: Human 293T cells were co-transfected with the indicated amounts of expression plasmids along with 250 ng of ELAM-luciferase reporter gene plasmid and 25 ng pRL-TK. 20 hr after transfection, reporter gene activity was determined with the dual-luciferase reporter assay system (Promega).

BAFF [1] = biological target: T2, BAFF (Homo sapiens, UniProt Q9Y275); test: Competitive ELISA, BAFF; format: binding; details: data not shown
T2 construct: made in house

BAFF [2] = biological target: T2, BAFF; test: Competitive surface plasmon resonance, BAFF binding to immobilized BCMA-Fc; details: competition with immobilized BCMA-Fc
Description: (§1) Surface plasmon resonance (SPR) measurements on a BIAcore 3000 instrument (Pharmacia Biosensor) were used to measure binding affinities of receptors to immobilized APRIL and BAFF by competition binding. […] In these experiments, receptors in solution competed for binding of ligand in solution at room temperature with immobilized BCMA-Fc. BCMA-Fc was coupled to flow cell 2 of a CM4 sensor chip, using the amine coupling protocol supplied by the manufacturer, at a high density (4500 resonance units) so that the initial rate of binding was linearly dependent on the concentration of free ligand. In all experiments flow cell 1 was ethanolamine-blocked and used as the reference cell. Washing with 10 mM HCl regenerated flow cells between sample injections. In order to determine the ligand concentration necessary to obtain the optimal for competition experiments, a preliminary binding study was performed for each ligand where two-fold dilutions of the ligand ranging from 400 nM to 6.25 nM were injected over the BCMA-Fc surface. […] The IC50 values were calculated using a four-parameter curve fit (y=((m1−m4)/(1+(m0/m3)̂m2))+m4) of the initial binding rates for the receptor/control (Vi/Vo) as a function of receptor concentration.

APRIL [3] = biological target: T1, APRIL; test: Competitive surface plasmon resonance, APRIL binding to immobilized BCMA-Fc; design: species or system murine; details: competition with immobilized BCMA-Fc
Description: as §1

APRIL [4] = biological target: T1, APRIL; test: Competitive ELISA, APRIL; format: binding, murine; details: data not shown

T2 sequence (Q9Y275 82-285 limits assumed): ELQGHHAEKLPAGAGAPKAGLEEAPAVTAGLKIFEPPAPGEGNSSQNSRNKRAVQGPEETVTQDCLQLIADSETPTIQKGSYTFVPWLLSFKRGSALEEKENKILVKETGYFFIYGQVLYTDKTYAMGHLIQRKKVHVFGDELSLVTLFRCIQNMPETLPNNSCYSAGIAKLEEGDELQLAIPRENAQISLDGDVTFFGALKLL

Molecule | NF-κB activation by APRIL or BAFF (NF-κB) | binding to BAFF, in words (BAFF [1]) | affinity for BAFF, comparison in words (BAFF [2]) | affinity for APRIL, comparison in words (APRIL [3]) | binding to APRIL, in words (APRIL [4])
B1 | capable of mediating NF-κB activation | – | – | – | –
B2 | – | no improvement in binding | did not confer additional affinity | did not confer additional affinity | no improvement in binding
